Assay results: the supplement of paper PMC9112550, “Optimization of the antimicrobial peptide Bac7 by deep mutational scanning” (BMC Biology, 2022)

Tested on: Escherichia coli TOP10
Assay: shrunken log2 fold change of peptide-encoding DNA abundance (4.5 h post-induction vs induction); higher = less antimicrobial activity (less host growth inhibition)
Details: time post-induction: 4.5 h; library: site-saturation at positions 5, 18, 19, 20
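Also: peptides expressed intracellularly from a pBAD plasmid library in pooled LB shake-flask culture, induced with 0.3% L-arabinose, DNA abundance read by NGS, three biological replicates, DESeq2 with apeglm shrinkage.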

Sequence	shrunken log2 fold change
RRIRPRPPRLPRPRPRPHVKPRP	-0.013
RRIRPRPPRLPRPRPRPWAQPRP	-0.00768
RRIRLRPPRLPRPRPRPQEGPRP	0.0327
RRIRPRPPRLPRPRPRPWDWPRP	0.00784
RRIRMRPPRLPRPRPRPNCYPRP	-0.26
RRIRRRPPRLPRPRPRPKERPRP	-0.327
RRIRTRPPRLPRPRPRPRDFPRP	0.0849
RRIRERPPRLPRPRPRPMRSPRP	0.119
RRIRIRPPRLPRPRPRPTSMPRP	-0.0835
RRIRSRPPRLPRPRPRPVAFPRP	0.0876
RRIRWRPPRLPRPRPRPCCFPRP	-0.0922
RRIRIRPPRLPRPRPRPPPQPRP	0.52
RRIRQRPPRLPRPRPRPISNPRP	-0.223
RRIRKRPPRLPRPRPRPYSYPRP	-0.0565
RRIRNRPPRLPRPRPRPPARPRP	0.746
RRIRCRPPRLPRPRPRPPYLPRP	-0.87
RRIRIRPPRLPRPRPRPECFPRP	0.042
RRIRVRPPRLPRPRPRPGPCPRP	-0.128
RRIRRRPPRLPRPRPRPNIWPRP	0.134
RRIRLRPPRLPRPRPRPTPLPRP	0.296
RRIRVRPPRLPRPRPRPMPEPRP	-0.192
RRIRYRPPRLPRPRPRPARHPRP	0.0712

Sequence	shrunken log2 fold change
RRIRKRPPRLPRPRPRPDMEPRP	0.092
RRIRHRPPRLPRPRPRPHKPPRP	0.0188
RRIRTRPPRLPRPRPRPMRSPRP	0.232
RRIRMRPPRLPRPRPRPFWMPRP	0.154
RRIRMRPPRLPRPRPRPTEKPRP	1.36
RRIRKRPPRLPRPRPRPENYPRP	-0.0275
RRIRPRPPRLPRPRPRPNQGPRP	-0.55
RRIRLRPPRLPRPRPRPITFPRP	0.0415
RRIRARPPRLPRPRPRPYAKPRP	0.249
RRIRDRPPRLPRPRPRPEHTPRP	0.225
RRIRFRPPRLPRPRPRPQPDPRP	0.254
RRIRCRPPRLPRPRPRPEMFPRP	0.00455
RRIRQRPPRLPRPRPRPGARPRP	0.451
RRIRKRPPRLPRPRPRPTKKPRP	0.0465
RRIRQRPPRLPRPRPRPPKQPRP	-0.0279
RRIRARPPRLPRPRPRPAFIPRP	0.142
RRIRYRPPRLPRPRPRPEELPRP	-0.0326
RRIRDRPPRLPRPRPRPVEMPRP	-0.0847
RRIRGRPPRLPRPRPRPFWAPRP	0.325
RRIRWRPPRLPRPRPRPLSYPRP	-0.243
RRIRSRPPRLPRPRPRPYVCPRP	-0.414
RRIRGRPPRLPRPRPRPFNHPRP	-0.357

Sequence	shrunken log2 fold change
RRIRPRPPRLPRPRPRPHFIPRP	-0.468
RRIRERPPRLPRPRPRPICAPRP	0.0742
RRIRCRPPRLPRPRPRPLRIPRP	-0.0238
RRIRWRPPRLPRPRPRPHCFPRP	-0.0202
RRIRKRPPRLPRPRPRPHIGPRP	-0.0664
RRIRQRPPRLPRPRPRPARVPRP	0.109
RRIRWRPPRLPRPRPRPTRDPRP	0.0468
RRIRRRPPRLPRPRPRPSGNPRP	0.122
RRIRYRPPRLPRPRPRPSLKPRP	-0.316
RRIRLRPPRLPRPRPRPAIEPRP	0.0744
RRIRHRPPRLPRPRPRPNIGPRP	-0.431
RRIRWRPPRLPRPRPRPAQTPRP	0.476
RRIRWRPPRLPRPRPRPMLIPRP	0.157
RRIRIRPPRLPRPRPRPILPPRP	0.0798
RRIRSRPPRLPRPRPRPIGYPRP	0.0746
RRIRGRPPRLPRPRPRPGYQPRP	-0.0619
RRIRKRPPRLPRPRPRPGTNPRP	0.124
RRIRIRPPRLPRPRPRPDCGPRP	0.0585
RRIRGRPPRLPRPRPRPFWSPRP	0.679
RRIRSRPPRLPRPRPRPSCQPRP	-0.175
RRIRKRPPRLPRPRPRPAQHPRP	0.65
RRIRGRPPRLPRPRPRPPFQPRP	0.358

Sequence	shrunken log2 fold change
RRIRMRPPRLPRPRPRPQHCPRP	-0.458
RRIRMRPPRLPRPRPRPCWCPRP	-7.44e-05
RRIRCRPPRLPRPRPRPAEFPRP	-0.0616
RRIRCRPPRLPRPRPRPSGEPRP	0.299
RRIRHRPPRLPRPRPRPWDAPRP	-0.101
RRIRYRPPRLPRPRPRPNWCPRP	0.01
RRIRMRPPRLPRPRPRPCPKPRP	-0.214
RRIRERPPRLPRPRPRPHRMPRP	-0.305
RRIRRRPPRLPRPRPRPSVYPRP	-0.0412
RRIRTRPPRLPRPRPRPGYAPRP	0.111
RRIRWRPPRLPRPRPRPPSNPRP	0.133
RRIRARPPRLPRPRPRPCVAPRP	0.715
RRIRSRPPRLPRPRPRPDYNPRP	-0.622
RRIRIRPPRLPRPRPRPERCPRP	0.296
RRIRVRPPRLPRPRPRPRWGPRP	0.157
RRIRSRPPRLPRPRPRPWYHPRP	-0.45
RRIRHRPPRLPRPRPRPTYTPRP	-0.00607
RRIRYRPPRLPRPRPRPVWVPRP	0.127
RRIRERPPRLPRPRPRPVDMPRP	-0.107
RRIRQRPPRLPRPRPRPWMMPRP	0.0873
RRIRVRPPRLPRPRPRPCFWPRP	-0.0218
RRIRMRPPRLPRPRPRPRLNPRP	0.305

Sequence	shrunken log2 fold change
RRIRTRPPRLPRPRPRPVQIPRP	-0.0381
RRIRCRPPRLPRPRPRPSSCPRP	-0.211
RRIRTRPPRLPRPRPRPNAKPRP	-0.0531
RRIRSRPPRLPRPRPRPFSGPRP	-0.134
RRIRERPPRLPRPRPRPASRPRP	0.0348
RRIRPRPPRLPRPRPRPLTDPRP	0.111
RRIRERPPRLPRPRPRPCRAPRP	-0.0474
RRIRWRPPRLPRPRPRPPDAPRP	0.5
RRIRVRPPRLPRPRPRPGMMPRP	0.135
RRIRWRPPRLPRPRPRPMHYPRP	-0.107
RRIRWRPPRLPRPRPRPMHFPRP	-0.00884
RRIRTRPPRLPRPRPRPLKEPRP	0.825
RRIRDRPPRLPRPRPRPACTPRP	0.642
RRIRGRPPRLPRPRPRPKIAPRP	0.386
RRIRGRPPRLPRPRPRPDLCPRP	0.445
RRIRNRPPRLPRPRPRPDFGPRP	-0.0978
RRIRFRPPRLPRPRPRPSRYPRP	-0.0764
RRIRTRPPRLPRPRPRPLLMPRP	-0.278
RRIRNRPPRLPRPRPRPFCEPRP	-0.28
RRIRFRPPRLPRPRPRPPQWPRP	0.384
RRIRIRPPRLPRPRPRPIEIPRP	-0.437
